Experimental data reported in patent US20150368661A1 (UNIVERSITY OF LOUISVILLE RESEARCH FOUNDATION, published 2015).
Where two headings read alike, the source gives them in different places.

What was measured:
[1] = target: T1, recombinant gp120 from HIV-1 SF162 (clade B) (HIV-1 SF162 (clade B), UniProt P19550 32-502); assay: VRC01p (plant-produced)
T1 construct: domain: gp120; also called gp120SF162

[2] = target: T2, HIV-1 Env of strain Q769.h5 (clade A) on Env-pseudotyped virus (HIV-1 Q769.h5 (clade A)); assay: cell-based or functional assay
[3] = target: T3, HIV-1 Env of strain SF162 (clade B) on Env-pseudotyped virus (HIV-1 SF162 (clade B), UniProt P19550 32-847); assay: cell-based or functional assay
[4] = target: T4, HIV-1 Env of strain SS1196.1 (clade B) on Env-pseudotyped virus (HIV-1 SS1196.1 (clade B)); assay: cell-based or functional assay
[5] = target: T5, HIV-1 Env of strain Du156 (clade C) on Env-pseudotyped virus (HIV-1 Du156 (clade C)); assay: cell-based or functional assay
[6] = target: T2, HIV-1 Env of strain Q769.h5 (clade A) …; assay: cell-based or functional assay; remark: listed apart in the source
[7] = target: T3, HIV-1 Env of strain SF162 (clade B) on …; assay: cell-based or functional assay; remark: listed apart in the source
[8] = target: T4, HIV-1 Env of strain SS1196.1 (clade B) …; assay: cell-based or functional assay; remark: listed apart in the source
[9] = target: T5, HIV-1 Env of strain Du156 (clade C) on …; assay: cell-based or functional assay; remark: listed apart in the source
[10] = target: T6, recombinant gp120 from HIV-1 Q769.H5 (clade A) (HIV-1 Q769.H5 (clade A)); assay: gp120-ELISA, plate coated with recombinant gp120, non-linear regression
T6 construct: domain: gp120

[11] = target: T7, recombinant gp120 from HIV-1 DU156 (clade C) (HIV-1 DU156 (clade C)); assay: as above
T7 construct: domain: gp120; also called gp120DU156

[12] = target: T1, recombinant gp120 from HIV-1 SF162 …; assay: gp120-ELISA, plate coated with recombinant gp120, non-linear regression; VRC01p (plant-produced)
[13] = target: T1, recombinant gp120 from HIV-1 SF162 …
[14] = target: T1, recombinant gp120 from HIV-1 SF162 …; assay: gp120-ELISA, plate coated with recombinant gp120, non-linear regression

B1: VRC01p (Nicotiana benthamiana plant-expressed anti-HIV-1 bnMAb VRC01 IgG1 from the L-(KP6pp)-H construct) (antibody)
light: EIVLTQSPGTLSLSPGETAIISCRTSQYGSLAWYQQRPGQAPRLVIYSGSTRAAGIPDRFSGSRWGPDYNLTISNLESGDFGVYYCQQYEFFGQGTKVQVDIKRTVAAPSVFIFPPSDEQLKSGTASVVCLLNNFYPREAKVQWKVDNALQSGNSQESVTEQDSKDSTYSLSSTLTLSKADYEKHKVYACEVTHQGLRSPVTKSFNRGECGGK
heavy: not shown
notes: also called plant-produced VRC01; VRC01p IgG1
[1]
  Kd: 3.97 nM
[2]
  VRC01p IC50 (µg/ml), HIV-1 neutralization: 0.17 µg/mL
[3]
  VRC01p IC50 (µg/ml), HIV-1 neutralization: 0.04 µg/mL
[4]
  VRC01p IC50 (µg/ml), HIV-1 neutralization: 1.32 µg/mL
[5]
  VRC01p IC50 (µg/ml), HIV-1 neutralization: 0.14 µg/mL
[6]
  IC50 (µg/ml) for VRC01p alone, HIV-1 neutralization, TZM-bl cells (VRC01p:GRFT series): 0.37 µg/mL
  IC50 (µg/ml) for VRC01p alone, HIV-1 neutralization, TZM-bl cells (VRC01p:MVC series): 0.54 µg/mL
  IC50 (µg/ml) for VRC01p alone, HIV-1 neutralization, TZM-bl cells (VRC01p:TFV series): 0.47 µg/mL
[7]
  IC50 (µg/ml) for VRC01p alone, HIV-1 neutralization, TZM-bl cells (VRC01p:GRFT series): 0.98 µg/mL
  IC50 (µg/ml) for VRC01p alone, HIV-1 neutralization, TZM-bl cells (VRC01p:MVC series): 0.5 µg/mL
  IC50 (µg/ml) for VRC01p alone, HIV-1 neutralization, TZM-bl cells (VRC01p:TFV series): 0.65 µg/mL
[8]
  IC50 (µg/ml) for VRC01p alone, HIV-1 neutralization, TZM-bl cells (VRC01p:GRFT series): 2.61 µg/mL
  IC50 (µg/ml) for VRC01p alone, HIV-1 neutralization, TZM-bl cells (VRC01p:MVC series): 2.22 µg/mL
  IC50 (µg/ml) for VRC01p alone, HIV-1 neutralization, TZM-bl cells (VRC01p:TFV series): 2.14 µg/mL
[9]
  IC50 (µg/ml) for VRC01p alone, HIV-1 neutralization, TZM-bl cells (VRC01p:GRFT series): 0.25 µg/mL
  IC50 (µg/ml) for VRC01p alone, HIV-1 neutralization, TZM-bl cells (VRC01p:MVC series): 0.26 µg/mL
  IC50 (µg/ml) for VRC01p alone, HIV-1 neutralization, TZM-bl cells (VRC01p:TFV series): 0.23 µg/mL
[10]
  EC50: 0.35 µg/mL
[11]
  EC50: 67.9 µg/mL
[12]
  EC50: 4.11 µg/mL

B2: VRC01HEK (HEK293F cell-produced bnMAb VRC01) (antibody)
light: EIVLTQSPGTLSLSPGETAIISCRTSQYGSLAWYQQRPGQAPRLVIYSGSTRAAGIPDRFSGSRWGPDYNLTISNLESGDFGVYYCQQYEFFGQGTKVQVDIKRTVAAPSVFIFPPSDEQLKSGTASVVCLLNNFYPREAKVQWKVDNALQSGNSQESVTEQDSKDSTYSLSSTLTLSKADYEKHKVYACEVTHQGLRSPVTKSFNRGEC
heavy: not shown
notes: also called human cell-produced VRC01; human cell-derived bnMAb
[13]
  Kd: 3.82 nM
[10]
  EC50: 0.28 µg/mL
[14]
  EC50: 4.24 µg/mL
[11]
  EC50: 15.1 µg/mL
